Targets include Jun-Jun bZIP K268A (human, UniProt P05412 252-315, K268A); Jun-Jun bZIP K258A (human, UniProt P05412 252-315, K258A); Jun-Jun bZIP K273A (human, UniProt P05412 252-315, K273A).
Experiment in all cases: ITC
In data set [1] the target is Jun bZIP R259A;Fos bZIP R143A (human;human, UniProt P05412;P01100 252-315;137-200, R259A|R143A).
The target of data set [2] is Jun bZIP K273A;Fos bZIP R146A (human;human, UniProt P05412;P01100 252-315;137-200, K273A|R146A).
The target in data set [3] is Jun bZIP R261A;Fos bZIP R146A (human;human, UniProt P05412;P01100 252-315;137-200, R261A|R146A).
Chain of Jun bZIP R261A;Fos bZIP R146A (P05412 252-315 R261A, chain 1 of 2): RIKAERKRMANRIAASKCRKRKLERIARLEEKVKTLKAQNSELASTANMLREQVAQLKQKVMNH
Chain of Jun bZIP R261A;Fos bZIP R146A (P01100 137-200 R146A, chain 2 of 2): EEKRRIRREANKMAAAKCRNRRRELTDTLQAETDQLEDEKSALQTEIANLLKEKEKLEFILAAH
Data set [4] deals with Jun bZIP R259A;Fos bZIP K153A (human;human, UniProt P05412;P01100 252-315;137-200, R259A|K153A).
Chain of Jun bZIP R259A;Fos bZIP K153A (P05412 252-315 R259A, chain 1 of 2): as the sequence (P05412 252-315 R261A, chain 1 of 2) above, with R8A, A10R counted along it
Chain of Jun bZIP R259A;Fos bZIP K153A (P01100 137-200 K153A, chain 2 of 2): as the sequence (P01100 137-200 R146A, chain 2 of 2) above, with A10R, K17A counted along it
The target in data set [5] is Jun bZIP R259A;Fos bZIP K148A (human;human, UniProt P05412;P01100 252-315;137-200, R259A|K148A).
Chain of Jun bZIP R259A;Fos bZIP K148A (P05412 252-315 R259A, chain 1 of 2): as the sequence (P05412 252-315 R261A, chain 1 of 2) above, with R8A, A10R counted along it
Chain of Jun bZIP R259A;Fos bZIP K148A (P01100 137-200 K148A, chain 2 of 2): as the sequence (P01100 137-200 R146A, chain 2 of 2) above, with A10R, K12A counted along it
For data set [6], the target named is Jun bZIP K268A;Fos bZIP R144A (human;human, UniProt P05412;P01100 252-315;137-200, K268A|R144A).
Chain of Jun bZIP K268A;Fos bZIP R144A (P05412 252-315 K268A, chain 1 of 2): as the sequence (P05412 252-315 R261A, chain 1 of 2) above, with A10R, K17A counted along it
Chain of Jun bZIP K268A;Fos bZIP R144A (P01100 137-200 R144A, chain 2 of 2): as the sequence (P01100 137-200 R146A, chain 2 of 2) above, with R8A, A10R counted along it
Data set [7] has as its target Jun bZIP R272A;Fos bZIP K148A (human;human, UniProt P05412;P01100 252-315;137-200, R272A|K148A).
In data set [8] the target is Jun bZIP K258A;Fos bZIP K153A (human;human, UniProt P05412;P01100 252-315;137-200, K258A|K153A).
Chain of Jun bZIP K258A;Fos bZIP K153A (P05412 252-315 K258A, chain 1 of 2): as the sequence (P05412 252-315 R261A, chain 1 of 2) above, with K7A, A10R counted along it
Chain of Jun bZIP K258A;Fos bZIP K153A (P01100 137-200 K153A, chain 2 of 2): as the sequence (P01100 137-200 R146A, chain 2 of 2) above, with A10R, K17A counted along it
Data set [9] concerns the target Jun bZIP R259A;Fos bZIP R157A (human;human, UniProt P05412;P01100 252-315;137-200, R259A|R157A).
Data set [10] has as its target Jun bZIP K273A;Fos bZIP R157A (human;human, UniProt P05412;P01100 252-315;137-200, K273A|R157A).
The target in data set [11] is Jun bZIP R270A;Fos bZIP K153A (human;human, UniProt P05412;P01100 252-315;137-200, R270A|K153A).
Chain of Jun bZIP R270A;Fos bZIP K153A (P05412 252-315 R270A, chain 1 of 2): as the sequence (P05412 252-315 R261A, chain 1 of 2) above, with A10R, R19A counted along it
Chain of Jun bZIP R270A;Fos bZIP K153A (P01100 137-200 K153A, chain 2 of 2): as the sequence (P01100 137-200 R146A, chain 2 of 2) above, with A10R, K17A counted along it
The target in data set [12] is Jun bZIP R272A;Fos bZIP R146A (human;human, UniProt P05412;P01100 252-315;137-200, R272A|R146A).
Chain of Jun bZIP R272A;Fos bZIP R146A (P05412 252-315 R272A, chain 1 of 2): as the sequence (P05412 252-315 R261A, chain 1 of 2) above, with A10R, R21A counted along it
Chain of Jun bZIP R272A;Fos bZIP R146A (P01100 137-200 R146A, chain 2 of 2): as the sequence (P01100 137-200 R146A, chain 2 of 2) above
In data set [13] the target is Jun bZIP R270A;Fos bZIP K148A (human;human, UniProt P05412;P01100 252-315;137-200, R270A|K148A).
Chain of Jun bZIP R270A;Fos bZIP K148A (P05412 252-315 R270A, chain 1 of 2): as the sequence (P05412 252-315 R261A, chain 1 of 2) above, with A10R, R19A counted along it
Chain of Jun bZIP R270A;Fos bZIP K148A (P01100 137-200 K148A, chain 2 of 2): as the sequence (P01100 137-200 R146A, chain 2 of 2) above, with A10R, K12A counted along it
In data set [14] the target is Jun bZIP K258A;Fos bZIP R155A (human;human, UniProt P05412;P01100 252-315;137-200, K258A|R155A).
Chain of Jun bZIP K258A;Fos bZIP R155A (P05412 252-315 K258A, chain 1 of 2): as the sequence (P05412 252-315 R261A, chain 1 of 2) above, with K7A, A10R counted along it
Chain of Jun bZIP K258A;Fos bZIP R155A (P01100 137-200 R155A, chain 2 of 2): as the sequence (P01100 137-200 R146A, chain 2 of 2) above, with A10R, R19A counted along it

Usually Kd stands for the constant that tells how readily two partners part at equilibrium. Low readings indicate a tighter complex, high ones a looser complex.

Chain of Jun bZIP K273A;Fos bZIP R157A (P05412 252-315 K273A, chain 1 of 2): as the sequence (P05412 252-315 R261A, chain 1 of 2) above, with A10R, K22A counted along it
Chain of Jun bZIP K273A;Fos bZIP R157A (P01100 137-200 R157A, chain 2 of 2): as the sequence (P01100 137-200 R146A, chain 2 of 2) above, with A10R, R21A counted along it
Chain of Jun bZIP K273A;Fos bZIP R146A (P05412 252-315 K273A, chain 1 of 2): as the sequence (P05412 252-315 R261A, chain 1 of 2) above, with A10R, K22A counted along it
Chain of Jun bZIP K273A;Fos bZIP R146A (P01100 137-200 R146A, chain 2 of 2): as the sequence (P01100 137-200 R146A, chain 2 of 2) above
Chain of Jun-Jun bZIP K273A (P05412 252-315 K273A): as the sequence (P05412 252-315 R261A, chain 1 of 2) above, with A10R, K22A counted along it
Chain of Jun bZIP R272A;Fos bZIP K148A (P05412 252-315 R272A, chain 1 of 2): as the sequence (P05412 252-315 R261A, chain 1 of 2) above, with A10R, R21A counted along it
Chain of Jun bZIP R272A;Fos bZIP K148A (P01100 137-200 K148A, chain 2 of 2): as the sequence (P01100 137-200 R146A, chain 2 of 2) above, with A10R, K12A counted along it
Chain of Jun-Jun bZIP K268A (P05412 252-315 K268A): as the sequence (P05412 252-315 R261A, chain 1 of 2) above, with A10R, K17A counted along it
Chain of Jun bZIP R259A;Fos bZIP R143A (P05412 252-315 R259A, chain 1 of 2): as the sequence (P05412 252-315 R261A, chain 1 of 2) above, with R8A, A10R counted along it
Chain of Jun bZIP R259A;Fos bZIP R143A (P01100 137-200 R143A, chain 2 of 2): as the sequence (P01100 137-200 R146A, chain 2 of 2) above, with R7A, A10R counted along it
Chain of Jun bZIP R259A;Fos bZIP R157A (P05412 252-315 R259A, chain 1 of 2): as the sequence (P05412 252-315 R261A, chain 1 of 2) above, with R8A, A10R counted along it
Chain of Jun bZIP R259A;Fos bZIP R157A (P01100 137-200 R157A, chain 2 of 2): as the sequence (P01100 137-200 R146A, chain 2 of 2) above, with A10R, R21A counted along it
Chain of Jun-Jun bZIP K258A (P05412 252-315 K258A): as the sequence (P05412 252-315 R261A, chain 1 of 2) above, with K7A, A10R counted along it

B1: TRE duplex 15-mer (dsDNA)
DNA 1: CGCGTGACTCACCCC
DNA 2: GGGGTGAGTCACGCG
On to B1, for which the Kd worked out at 3490 ± 140 nM in data set [1]; 680 ± 10 nM in data set [2]; 1030 ± 20 nM in data set [3]; 1720 ± 150 nM in [4]; 2260 ± 180 nM in [5]; 400 ± 20 nM with Jun-Jun bZIP K268A. For the same molecule, the Kd is 1790 ± 20 nM in data set [6]; 710 ± 20 nM in [7]; 4430 ± 190 nM in the data set with Jun-Jun bZIP K258A; 540 ± 30 nM in data set [8]; 3050 ± 120 nM in data set [9]; 1300 ± 80 nM in data set [10]. For the same molecule, the Kd in data set [11] turned out to be 1610 ± 150 nM; in [12], 750 ± 100 nM; with Jun-Jun bZIP K273A, 6520 ± 750 nM; in data set [13], 1900 ± 120 nM; in data set [14], 5380 ± 120 nM.
